Measurements published in patent US20240294640A1 (published 2024).
Like-named read-outs stand apart in the source and are kept apart here. Each block holds one binder with its values, some of them ahead of it.

Assays:
[1] = target: T1, CD3 naturally expressed on Jurkat cells (human, UniProt P07766 23-207); assay: FACS
[2] = target: T1, CD3 naturally expressed on Jurkat cells; assay: FACS; remark: listed apart in the source

T1 sequence (P07766 23-207): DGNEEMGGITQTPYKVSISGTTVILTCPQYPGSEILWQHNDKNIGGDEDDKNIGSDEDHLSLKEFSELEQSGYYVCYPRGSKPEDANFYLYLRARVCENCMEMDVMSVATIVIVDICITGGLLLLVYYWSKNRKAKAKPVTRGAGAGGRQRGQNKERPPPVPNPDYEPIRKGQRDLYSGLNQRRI

B2: QP090837493746 (bispecific antibody)
chain 1: not shown
chain 2: not shown
chain 3: QVQLVQSGAEVKKPGASVKVSCKASGYTFTSYIMHWVRQAPGQGLEWMGYINPYNDGTKYNEKFKGRVTMTRDTSTSTVYMELSSLRSEDTAVYYCARLGFTTRNAMDYWGQGTLVTVSSASTKGPSVFPLAPSSKSTSGGTAALGCLVKDYFPEPVTVSWNSGALTSGVHTFPAVLQSSGLYSLSSVVTVPSSSLGTQTYICNVNHKPSNTKVDKKVEPKSC
- EC50 [2]: 64.3 nM

B3: QP090937493746 (bispecific antibody)
chain 1: not shown
chain 2: not shown
chain 3: B2 chain 3
- EC50 [2]: 21.9 nM

B5: QP372337241461 (antibody)
chain 1: MEFGLSWLFLVAILKGVQCQVQLVQSGAEVKKPGASVKVSCKASGYTFTSYIMHWVRQAPGQGLEWMGYINPYNDGTKYNEKFKGRVTMTRDTSTSTVYMELSSLRSEDTAVYYCARLGFTTRNAMDYWGQGTLVTVSSASTKGPSVFPLAPSSKSTSGGTAALGCLVKDYFPEPVTVSWNSGALTSGVHTFPAVLQSSGLYSLSSVVTVPSSSLGTQTYICNVNHKPSNTKVDKKVEPKSCGGGGSGGGGSGGGGSEVQLLESGGGLVQPGGSLKLSCAASGFTFNTYAMNWVRQAPGKGLEWVARIRSKYNNYATYYADSVKDRFTISRDDSKNTAYLQMNNLKTEDTAVYYCVRHGNFGNSYVSWFAYWGQGTLVTVSSGGGGSGGGGSGGGGSESKYGPPCPPCPAPEFLGGPSVFLFPPKPKDTLMISRTPEVTCVVVDVSQEDPEVQFNWYVDGVEVHNAKTKPREEQFNSTYRVVSVLTVLHQDWLNGKEYKCKVSNKGLPSSIEKTISKAKGQPREPQVYTLPPSQEEMTKNQVSLSCAVKGFYPSDIAVEWESNGQPENNYKTTPPVLDSDGSFFLVSRLTVDKSRWQEGNVFSCSVMHEALHNHYTQKSLSLSLGGSSDYKDDDDK
chain 2: not shown
chain 3: not shown
- EC50 [1]: 172 nM

Next, values leading:

- EC50 [1]: 133 nM
B1: QP374437481461 (antibody)
chain 1: not shown
chain 2: MEFGLSWLFLVAILKGVQCQVQLVQSGAEVKKPGASVKVSCKASGYTFTSYIMHWVRQAPGQGLEWMGYINPYNDGTKYNEKFKGRVTMTRDTSTSTVYMELSSLRSEDTAVYYCARLGFTTRNAMDYWGQGTLVTVSSASTKGPSVFPLAPSSKSTSGGTAALGCLVKDYFPEPVTVSWNSGALTSGVHTFPAVLQSSGLYSLSSVVTVPSSSLGTQTYICNVNHKPSNTKVDKKVEPKSCESKYGPPCPPCPAPEFLGGPSVFLFPPKPKDTLMISRTPEVTCVVVDVSQEDPEVQFNWYVDGVEVHNAKTKPREEQFNSTYRVVSVLTVLHQDWLNGKEYKCKVSNKGLPSSIEKTISKAKGQPREPQVYTLPPSQEEMTKNQVSLSCAVKGFYPSDIAVEWESNGQPENNYKTTPPVLDSDGSFFLVSRLTVDKSRWQEGNVFSCSVMHEALHNHYTQKSLSLSLGGSSDYKDDDDK
chain 3: not shown

- EC50 [2]: 34 nM
B4: QP091037493746 (bispecific antibody)
chain 1: not shown
chain 2: not shown
chain 3: B2 chain 3
